Patent publication US20190185898A1

Biological target: core-fucosylated RNase B (21) (bovine) (UniProt P61823)
Experiment: ELISA, glycoprotein coated, AAL-biotin in serial dilution

Chain of core-fucosylated RNase B (21) (bovine) (P61823 27-150): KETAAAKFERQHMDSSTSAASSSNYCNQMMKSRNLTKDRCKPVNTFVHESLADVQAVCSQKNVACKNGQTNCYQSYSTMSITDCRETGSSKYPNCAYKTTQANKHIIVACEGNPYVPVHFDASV

EC50: 275 µM
B1: Aleuria aurantia lectin (AAL) (protein, UniProt P18891 2-313, looked up)
chain: PTEFLYTSKIAAISWAATGGRQQRVYFQDLNGKIREAQRGGDNPWTGGSSQNVIGEAKLFSPLAAVTWKSAQGIQIRVYCVNKDNILSEFVYDGSKWITGQLGSVGVKVGSNSKLAALQWGGSESAPPNIRVYYQKSNGSGSSIHEYVWSGKWTAGASFGSTVPGTGIGATAIGPGRLRIYYQATDNKIREHCWDSNSWYVGGFSASASAGVSIAAISWGSTPNIRVYWQKGREELYEAAYGGSWNTPGQIKDASRPTPSLPDTFIAANSSGNIDISVFFQASGVSLQQWQWISGKGWSIGAVVPTGTPAGW
modifications: biotin label (AAL-biotin), site not stated
